From the nanobody polyreactivity screen of Harvey et al. (2022)

assay: yeast display, Sf9 membrane polyspecificity reagent, FACS + sequencing; frameworks hold sequencing errors
Summary of the method: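 Galactose-induced (36–48 hours) yeast carrying a synthetic nanobody display library were exposed to 10% biotinylated, detergent-solubilized Sf9 membrane reagent at 4 °C for 1 hour. FACS followed streptavidin microbead enrichment, using low and high (top ~1%) gates for expression (anti-HA) and reagent binding (streptavidin). Colony PCR, MiSeq 2 × 250 sequencing and CDR-length filtering followed. Labels for polyreactivity reflect the gate of origin.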

Sequence	polyreactivity (PSR sort gate)
QVQLVESGGGIVQAGGSLRLSCAASGFTFWVYAMGWSRQAPGNEWQLVAAISARGGSTYYADSVKVRFTISRDNAKNTVYLQMNSLKPVDTEVYYCAAEPSGKRSKFYYWGHGTQVTVSS	high polyreactivity
QVQLVESGGGIVQAGGSLRLSCAASGFTIWKYAMGLYRQAPGKERELVAAISVSGGRTNYADSVKGRFTISGDNAKNTVYLQMNSLKPEDTAVYYCIATPWRPYVGGEYWGQGTHVTVSS	high polyreactivity
QVQLVESGGGIVQAGGSLRLSCAASGGTFQRNAMGWYIQAPGKEREFVATITRGGGSTYYADSVKGRFTISRDNAKNTVYFQMNSLKPEDSAVYYCNANTSYYQRYNYWGQGTQVTVSS	high polyreactivity
QVQLVESGGGIVQAGGSLRLSCAASGGTFRVNAMVWYRQAPGKEREFVAAISGSGSSTYYADSVKGRFTISRDNAKNTVYLQMNSLKPEDTAVYYCAARSGVGGDNDYWGQGTQVTVSS	low polyreactivity
QVQLVESGGGIVQAGGSLRLSCAASGIIFDINSMGWYRQAPGKERELVAAITTSVDSTYYAHSVKGRFTISRDNAKNTVYLQMYSLQPEDTAVYYCSVSFVQFTQYDYWGQGTQVTVSS	low polyreactivity
QVQLVESGGGIVQAGGSLRLSCAASGIIFDVYAMGLYRQAPGTERELVAAISKRGGRTYYADSVKWRFTISRDNAKNTVYLQMNSLKPEDTAVYYCAADGQYKHFDYWGQGTQVTVSS	high polyreactivity
QVQLVESGGGIVQAGGSLRLSCAASGIIFRFYAMGWYRQAPGKERELVARIRSRGGSTYYADSVKGRFTISRDNAKNTVYLQMNSLKPEDTAVYYCAAGAGYPYYWGQGTQVTVSS	high polyreactivity
QVQLVESGGGIVQAGGSLRLSCAASGIIFSANAMGWYRQAPGKERELVAAISRAGSTNYADYVKGRFTISRDNAKNTVYLQMNSLKPEDTAVYYCAAGGGFYFIWTMDYWGQGTQVTVSS	low polyreactivity
QVQLVESGGGIVQAGGSLRLSCAASGIIIAVYAMGWYRQAPGKERELVAAISWSSGNTYYADSVKGRFTISRENAKNTVYLQMNSLNPEDTAVYYCAAVSRYKYDYWGQGTQVTVSS	high polyreactivity
QVQLVESGGGIVQAGGSLRLSCAASGITFQRNALGWYRQAPGKERELVAAISKSGGSTYYADSVKARFTISRDNAKNTVYLQMNSLKPEDTAVYDCAAPVWRYYRGKTFDFWGQGTQVTVSS	high polyreactivity
QVQLVESGGGIVQAGGSLRLSCAASGLIFYNYAMGWYRQAPGKERELVAAITSGGSTYYADSVKGRFTISRDNAKNTVYLQMNSLKPEDTAVYYCAADLTYTVPFDYWGQGTQVTVSS	high polyreactivity
QVQLVESGGGIVQAGGSLRLSCAASGLIFYTYAMGWYRQAPGKERELVATISWDVDSTNYADSVKGRFTISRDNAKNTVYLQMNSLKPEDTAGYYCAVDSTFDSYWYWVDYYEYGYWGQGTQVTVSS	high polyreactivity
QVQLVESGGGIVQAGGSLRLSCAASGLILANNAMGRYRQAPGKETELVATISSSGGRTSYADSVKGRFTISRDNAKNTVYLQMNSLKPEDTAVYYCAKYCGRYPHGRSWYDYWGQGTQVTVSS	high polyreactivity
QVQLVESGGGIVQAGGSLRLSCAASGLNFYWYAMGWYRQAPGKERELVAAITWSGGITYYADSVKGRFTISRDNANNTVYLQMNSLNPEDTAVYYCADDDDYGDVTYDYWGHGTQVTVSS	low polyreactivity
QVQLVESGGGIVQAGGSLRLSCAASGLTFPPNAMGWYRPAPGKEREFVAVISSGGGSTYYADSVKGRFTISRDNAKNTVYSQMNSLKPEDTAVYYCATEYQDGDTEYYYWGQGTQVTVSS	low polyreactivity
QVQLVESGGGIVQAGGSLRLSCAASGLTFRYYAMGWYRQAPGKERELVAAISGSGGSTYYADSVKGRFTISRDNAKNTVYLQLNRLKPEDTAVYYFASENESSSWGDYAMGYWGQGTQVTVST	high polyreactivity
QVQLVESGGGIVQAGGSLRLSCAASGNTFGYYAMGWYRPAPGKERELVASISYSGGSTYADSVKGRFTISRDNAKNTVYLQMNSLKPEDTAVYYCAADYWIYAADSWVLYDSWGQGTQVTVSS	low polyreactivity
QVQLVESGGGIVQAGGSLRLSCAASGNTFHTYAMGWNRQAPVKERELVAAISSRGVGTYYADSVKGRFTISRDNAKNTVYLQMNSLKPEDTAVYYCAARHHPEYYYWGQGTQVTVSS	high polyreactivity
QVQLVESGGGIVQAGGSLRLSCAASGRICIINAMGWYRQATGKERELVAAISTSGGRTYYADSVKGRFTISRDNAKNTVYLQKNSLKPVDTAVYYCNAGRGYRYYRSVGSSPYEYWGQGTQVTVSS	high polyreactivity
QVQLVESGGGIVQAGGSLRLSCAASGRIFAFNAMGWYRPAPGKERELVADITSSGVNTYYADSVKGRFTISRDNAINTVYLQMNSLKPEYTAVYYCAARSYLRWWVGMEYWGQGTQVTVSS	low polyreactivity

Sequence	polyreactivity (PSR sort gate)
QVQLVESGGGIVQAGGSLRLSCAASGRIFAYYAMGWYRQAPGKERELVAAISSSGGGTYYAYSVKGRFTISRDNAKNTVYLQMTSLKPEDTSVYYCAKRVPRKSSVSHPYDYWGQGTQVTVSS	high polyreactivity
QVQLVESGGGIVQAGGSLRLSCAASGRIFFGYAMGWYRQAPGKERELVAAITSGGSTYYADSVKGRFTISRDNAKNTDYLQMYSLKTEDTAVYYCAAVRWYGSKRYGYWGQGTQVTVSS	high polyreactivity
QVQLVESGGGIVQAGGSLRLSCAASGRIFPYNAMGWYIQAPGKERELVAAIRWSGGNTYYADSVKGRFTISRDNAKNTVYLQMNSLKPEDNAVYYCAKYRRSFGFDYWGQGTQVTVSS	high polyreactivity
QVQLVESGGGIVQAGGSLRLSCAASGRIFRLNAMGWYRQAPGKERELVAAISSRAGSTYYADSVKGRFTISRDNAKNTVYLQMNSLKPEDTAVYYCAARTYSSRLGRDSDYWGQGTQVTVSS	high polyreactivity
QVQLVESGGGIVQAGGSLRLSCAASGRIFVPNAMGWYRQAPGKERELVAAITSDGRTNYADSVKGRFTISRDNAKHTVYLQMNSLKPEDTAVYYCNAPVVTFGGYQDDVEYGYWGQGTQVTVSS	low polyreactivity
QVQLVESGGGIVQAGGSLRLSCAASGRIFVRNAMGWYRQARGKERELVAAISWSGGTNYADSVKGSFTISRDNAKNTVYLQMNILKPEDTAVYYCAALSVWSYYTYYYWGQGTQVTVSS	high polyreactivity
QVQLVESGGGIVQAGGSLRLSCAASGRIFWDYAMGWYRQAPGKERELVDVITLSGDSTYYADSVKGRFTISRDNAKNTVYLQMNSLKPEDTAVYYCAAARAIRQFWYVATFEYWGQGTQVTVSS	low polyreactivity
QVQLVESGGGIVQAGGSLRLSCAASGRIFWYNAMGWYRQAPGKERELVAGITRSGGRTYYADCVKGRFTISRDNAKNTVYLQMNSLKPEYTAVYYCAAAPYARRDYEYWGQGTQVTVSS	high polyreactivity
QVQLVESGGGIVQAGGSLRLSCAASGRILGANDMGWYRQAPGTERELVAAITSGGRTYYADSVKGRFTISRDNAKNTVYLQMNCLKPEDTAVYYCAVGGWDESVGKGYDYWGQGTQVTVSS	low polyreactivity
QVQLVESGGGIVQAGGSLRLSCAASGRILSRYAMGWYRQAPGKESDLVADISSGGRTHYADSVKGRFTISRDNAKNTVYFQMNSLKPEDSAVYYCAKDYTPYSRRLNSGGYYYWGQGTQVTVSS	high polyreactivity
QVQLVESGGGIVQAGGSLRLSCAASGRTFKSNAMGWSIQAPGKERELVAAISRSGVRTDYADSVKGRFTISRDNANITVYLQMNSLKPEDTAVYYCADRTWNRRSPYDYWGQGTQVTVSS	high polyreactivity
QVQLVESGGGIVQAGGSLRLSCAASGRTFKVNAMGWYIQAPGKEREFVAAITWNSGSSTYYADSVKGRFTISRDNAKNTVYLQMNSLKPEDTAVYYCAARSAGRYWNYYWGQGTQVTVSS	high polyreactivity
QVQLVESGGGIVQAGGSLRLSCAASGRTFYGNAMGWYIQEPGKERELVAGISQNGGSTYYADSVKGRFTSSRDTAKNTVYLQMNRLKPEDSAVYYCAADSYYFTGYWAHPYDYWGEGTQVTVSS	high polyreactivity
QVQLVESGGGIVQAGGSLRLSCAASGRTFYRNAMGWYIHAPGKERELVAAITSGGSTYYADSVKGRFTISRDNAKNSGYLQMNCLKPEDTAVYYCAALRHALRYDYWGQGTQVTVSS	low polyreactivity
QVQLVESGGGIVQAGGSLRLSCAASGRTFYYNAMGWYRQAPGKERELVAAISSSGGSTYYADSVKGRFTISRDNAKNTVYLQMNSLKPEDTAGYYCAASSPGARGGGGYWGQGTQVTVSS	high polyreactivity
QVQLVESGGGIVQAGGSLRLSCAASGRTSVVNAMGWYRQAPGKERELVAAITSGGSTHYADSVKGRFTISRDNAKNTVYLQINSLKPEDTAVYYCNARDRRRTNLLDYWGQGSQVTVSS	low polyreactivity
QVQLVESGGGIVQAGGSLRLSCAASGSIDWNAKGWYRQAPGKEREFVAAISSSGGRTSYADSVKGRFTISRDNAKNTVYLEMNSLKPEDTAVYYGAAAGSYDGDRYYYWGQGTQVTVSS	high polyreactivity
QVQLVESGGGIVQAGGSLRLSCAASGSIFARYAMGWSRPAPGKERELVAAISGRGGSTYYADSVKGRFTISRDHATNTDYLQMNSLKPEDTAVYYWNAVWDDYGFYSPYVVVEYDYWGQGTQVTVSS	high polyreactivity
QVQLVESGGGIVQAGGSLRLSCAASGSIFRRNALGWYRQAPGKERELVAAISSIGSSTYYADSVKGRFTISRENAKNTVYFQMNSLKPEDTAVYYCAAVFYYATYSKKFEYWGQGTQVTVSS	high polyreactivity
QVQLVESGGGIVQAGGSLRLSCAASGSIFVTNTMVWYRQAPGKERELVAAISYRGGSTYADSVKGRFTISRDNAKNTVYLQMNSLKPEDTAVYYCAADDLSFVGYYYGYVDDVYCGQGTQVTVSS	high polyreactivity
